{"source": "patent US20240026331", "molecular_target": "gliadin substrate", "data": [{"protein": "unactivated neprosin polypeptide prepared from cells expressing mSP-His-Npr1 (SEQ ID NO: 40) (protein) HHHHHHRSIQARLANKPKGTIKTIKGDDGEVVDCVDIYKQPAFDHPLLKNHTLQMQPSSYASKVGEYNKLEQPWHKNGECPKGSIPIRRQVITGLPVVKKQFPNLKFAPPSANTNHQYAVIAYFYGNASLQGANATINIWEPNLKNPNGDFSLTQIWISAGSGSSLNTIEAGWQVYPGRTGDSQPRFFIYWTADGYTSTGCYDLTCPGFVQTNNYYAIGMALQPSVYGGQQYELNESIQRDPATGNWWLYLWGTVVGYWPASIYNSITNGADTVEWGGEIYDSSGTGGFHTTTQMGSGHFPTEGYGKASYVRDLQCVDTYGNVISPTANSFQGIAPAPNCYNYQFQQGSSELYLFYGGPGCQ", "values": [{"measurement": "proteolytic activity on gliadin substrate (percent of gliadin remaining, RIDASCREEN Gliadin competitive ELISA; pH 4, 37 C, 5 or 30 min)", "value": "Neprosin preparation activated by treatment at acidic pH displays significantly greater proteolytic activity compared to unactivated neprosin polypeptide prepared from cells expressing mSP-His-Npr1"}]}, {"protein": "activated (mature, proteolytically active) neprosin Npr1 prepared by acid treatment (100 mM glycine, pH 2.5) of Npr1 purified from cells expressing … (protein) SANTNHQYAVIAYFYGNASLQGANATINIWEPNLKNPNGDFSLTQIWISAGSGSSLNTIEAGWQVYPGRTGDSQPRFFIYWTADGYTSTGCYDLTCPGFVQTNNYYAIGMALQPSVYGGQQYELNESIQRDPATGNWWLYLWGTVVGYWPASIYNSITNGADTVEWGGEIYDSSGTGGFHTTTQMGSGHFPTEGYGKASYVRDLQCVDTYGNVISPTANSFQGIAPAPNCYNYQFQQGSSELYLFYGGPGCQ", "values": [{"measurement": "gliadin digestion in buffered SGF (pH 3, 0.8 mg/mL pepsin), RIDASCREEN Gliadin competitive ELISA, 0-60 min", "value": "shows equivalent gliadin digestion activity when compared to the enzyme prepared from mammalian CHO cells"}, {"measurement": "proteolytic activity on gliadin substrate (percent of gliadin remaining, RIDASCREEN Gliadin competitive ELISA; pH 4, 37 C, 5 or 30 min)", "value": "Neprosin preparation activated by treatment at acidic pH displays significantly greater proteolytic activity compared to unactivated neprosin polypeptide prepared from cells expressing mSP-His-Npr1"}, {"measurement": "proteolytic activity on gliadin substrate inside a mouse stomach (enzyme-to-substrate ratio 1:1000 or 1:10,000, 15 min; RIDASCREEN Gliadin competitive ELISA)", "value": "dose-dependent proteolytic activity of activated WT Npr1 prepared from Npr1 expressed in CHO cells on gliadin substrate inside a mouse stomach"}]}, {"protein": "activated N216A Npr1 prepared from pJAG-s1-His-N216A Npr1 expressed in Pichia cells (SEQ ID NO: 60) (protein) SANTNHQYAVIAYFYGAASLQGANATINIWEPNLKNPNGDFSLTQIWISAGSGSSLNTIEAGWQVYPGRTGDSQPRFFIYWTADGYTSTGCYDLTCPGFVQTNNYYAIGMALQPSVYGGQQYELNESIQRDPATGNWWLYLWGTVVGYWPASIYNSITNGADTVEWGGEIYDSSGTGGFHTTTQMGSGHFPTEGYGKASYVRDLQCVDTYGNVISPTANSFQGIAPAPNCYNYQFQQGSSELYLFYGGPGCQ", "values": [{"measurement": "gliadin digestion in buffered SGF (pH 3, 0.8 mg/mL pepsin), RIDASCREEN Gliadin competitive ELISA", "value": "Both N216A Npr1 and N216A/N324A Npr1 digested gliadin in a similar manner as WT Npr1 produced in Pichia"}]}, {"protein": "activated WT Npr1 prepared from Npr1 expressed in Pichia cells (pJAG-s1-His-Npr1) (protein) SANTNHQYAVIAYFYGNASLQGANATINIWEPNLKNPNGDFSLTQIWISAGSGSSLNTIEAGWQVYPGRTGDSQPRFFIYWTADGYTSTGCYDLTCPGFVQTNNYYAIGMALQPSVYGGQQYELNESIQRDPATGNWWLYLWGTVVGYWPASIYNSITNGADTVEWGGEIYDSSGTGGFHTTTQMGSGHFPTEGYGKASYVRDLQCVDTYGNVISPTANSFQGIAPAPNCYNYQFQQGSSELYLFYGGPGCQ", "values": [{"measurement": "gliadin digestion in buffered SGF (pH 3, 0.8 mg/mL pepsin), RIDASCREEN Gliadin competitive ELISA, 0-60 min", "value": "The activated neprosin protease from Pichia is proteolytically active on gliadin substrate in SGF and shows equivalent gliadin digestion activity when compared to the enzyme prepared from mammalian CHO cells"}]}, {"protein": "activated N216A/N324A Npr1 prepared from pJAG-s1-His-N216A, N324A Npr1 expressed in Pichia cells (SEQ ID NO: 66) (protein) SANTNHQYAVIAYFYGAASLQGANATINIWEPNLKNPNGDFSLTQIWISAGSGSSLNTIEAGWQVYPGRTGDSQPRFFIYWTADGYTSTGCYDLTCPGFVQTNNYYAIGMALQPSVYGGQQYELAESIQRDPATGNWWLYLWGTVVGYWPASIYNSITNGADTVEWGGEIYDSSGTGGFHTTTQMGSGHFPTEGYGKASYVRDLQCVDTYGNVISPTANSFQGIAPAPNCYNYQFQQGSSELYLFYGGPGCQ", "values": [{"measurement": "gliadin digestion in buffered SGF (pH 3, 0.8 mg/mL pepsin), RIDASCREEN Gliadin competitive ELISA", "value": "Both N216A Npr1 and N216A/N324A Npr1 digested gliadin in a similar manner as WT Npr1 produced in Pichia"}]}]}
